Series [1] relates to Xatr-Xatrip. The experiment in a line: Kinase assay of Xatr-Xatrip complexes isolated from Xenopus egg extracts. In kind it is biochemical. Conditions: for activation of Xatr kinase activity toward PHAS-I: isolated Xatr-Xatrip complexes, 32P-ATP, result in words; for ATR activation compared with the 972-1279 fragment: Xatr-XatripΔ222, PHAS-I, His6-human TopBP1 fragments. An excerpt:
Specifically, Applicants first isolated Xatr from egg extracts by pull-downs with FLAG-tagged Xenopus ATRIP (Xatrip). For these experiments, Applicants used both full-length Xatrip and an N-terminal truncation mutant (ΔN222) that supports normal Xatr-dependent activation of Xchk1 in egg extracts (Kumagai et al., 2004; Kim et al., 2005).
Applicants eluted the beads with FLAG peptide and mixed the eluates with a His6-tagged version of XtopBP1 that had been purified from baculovirus-infected insect cells (FIG. 1B). Finally, Applicants added ^32P-ATP and PHAS-I, a commonly used model substrate for ATR (Abraham, 2001).
Xatrip-FLAG and XatripΔN222-FLAG (20 ng/μl each) were incubated in interphase extracts containing anti-FLAG M2 antibody beads (Sigma) for 60 min at room temperature. The beads were isolated and washed twice with buffer A (10 mM HEPES-KOH (pH 7.5), 150 mM NaCl, 0.1% CHAPS, and 2.5 mM EGTA) and twice with HEPES-buffered saline (HBS; 10 mM HEPES-KOH (pH 7.5) and 150 mM NaCl). Xatr-Xatrip complexes were eluted in one-tenth the volume of the egg extract in HBS containing 0.1 mg/ml 3×-FLAG peptide (Sigma) for 60 min at 4° C. Eluates (2 μl) were used for kinase assays as described below.
Samples were incubated in 20 μl kinase buffer (50 mM Tris-HCl (pH 7.5), 10 mM MgCl2, 1 mM dithiothreitol, 100 μM nonradioactive ATP, and 100 μCi/ml [γ-^32P]ATP) containing 12.5 μg/ml PHAS-I or 50 μg/ml GST-Xmcm2 (62-122) for 30 min at room temperature. GST-XtopBP1 (972-1279) was added at a final concentration of 100 μg/ml unless indicated otherwise. In some cases, GST-Xmcm2 (62-122), GST-Xchk1 (306-352), or full-length Xchk1-Myc-His6 were used as substrates with only […] nonradioactive ATP. Reactions were terminated by boiling in gel sample buffer.

For a further series, the system named is human Mcm2 on S108. The series is described as follows: Phosphorylation of Mcm2 on S108 in transfected human 293T cells. The series is classed as cell-based. An excerpt:
To pursue this issue further, Applicants asked whether the ATR-activating domain of TopBP1 could induce ATR-dependent phosphorylation in human cells. For this purpose, Applicants constructed a version of the enhanced green fluorescent protein (EGFP) containing the SV40 nuclear localization sequence and residues 978-1286 of human TopBP1 (equivalent to residues 972-1279 of XtopBP1). Applicants also produced the W1145R mutant of this plasmid (analogous to the W1138R mutant of XtopBP1). Applicants transfected plasmids encoding these proteins into human 293T cells and performed immunoblotting with anti-phosphopeptide antibodies that detect phosphorylation of human Mcm2 on S108 (which corresponds to S92 of Xmcm2) (Cortez et al., 2004; Yoo et al., 2004).
pEGFP-NLS-TopBP1 (978-1286), which encodes EGFP followed by a nuclear localization sequence (KKKRKV, SEQ ID NO: 11) and amino acids 978-1286 of human TopBP1, was prepared from pEGFP (Clontech) by standard polymerase chain reaction-based methods. Plasmids were transfected into 293T cells with Lipofectamine 2000 (Invitrogen).

The subject of the next series is Xchk1. The experiment in a line: Ectopic phosphorylation of 35S-Xchk1 in Xenopus egg extracts without checkpoint-inducing DNA. The series is classed as biochemical. Conditions: 35S-Xchk1, tautomycin, no checkpoint-inducing DNA template. The procedure: Because the GST-XtopBP1 (972-1279) fragment could activate Xatr in vitro without the inclusion of DNA, Applicants reasoned that ectopic addition of this fragment to Xenopus egg extracts might also be able to trigger the Xatr-dependent phosphorylation of Xchk1 even in the absence of a checkpoint-inducing DNA template.
Extracts from Xenopus eggs were prepared as described (Kumagai and Dunphy, 2000). A DNA replication checkpoint response was induced by addition of 50 μg/ml aphidicolin into extracts containing demembranated sperm nuclei (3000 per μl) (Kumagai and Dunphy, 2000). To monitor DNA replication, extracts containing 1000 sperm nuclei/μl were incubated with [α-^32P]dATP (Yoo et al., 2004).

For series [2], the system named is Xatr-Xatrip. The experiment in a line: Glutathione bead pull-down of Xatr and Xatrip from egg extracts. The series is classed as binding, Xenopus. The following applies: egg extracts, immunoblotting. The procedure: Specifically, Applicants incubated glutathione beads containing GST-XtopBP1 (972-1279) in egg extracts, reisolated the beads, and performed immunoblotting for both Xatr and Xatrip. […] In addition, in other experiments, there was no binding of Xatr or Xatrip to beads containing GST fusions of the 1-348, 333-646, or 623-984 segments from XtopBP1 (data not shown).
Applicants also tested to see if the association of XtopBP1 with Xatr depends upon Xatrip. For this experiment, Applicants removed endogenous Xatrip from egg extracts by immunodepletion with anti-Xatrip antibodies. As described previously, this procedure leaves behind approximately 30% of the endogenous Xatr, the fraction that is not in a complex with Xatrip (Kumagai et al., 2004). Next, Applicants added GST-XtopBP1 (972-1279) to the Xatrip-depleted extracts and to mock-depleted extracts that had been prepared in parallel.

Experimental findings from US8080531B2, “Methods for modulating checkpoint activation through TopBP1” (California Institute of Technology, priority 2006, dated 2011) are described below.

Xatr-Xatrip, sequence (Q9DE14 whole entry, the tested form may be a part): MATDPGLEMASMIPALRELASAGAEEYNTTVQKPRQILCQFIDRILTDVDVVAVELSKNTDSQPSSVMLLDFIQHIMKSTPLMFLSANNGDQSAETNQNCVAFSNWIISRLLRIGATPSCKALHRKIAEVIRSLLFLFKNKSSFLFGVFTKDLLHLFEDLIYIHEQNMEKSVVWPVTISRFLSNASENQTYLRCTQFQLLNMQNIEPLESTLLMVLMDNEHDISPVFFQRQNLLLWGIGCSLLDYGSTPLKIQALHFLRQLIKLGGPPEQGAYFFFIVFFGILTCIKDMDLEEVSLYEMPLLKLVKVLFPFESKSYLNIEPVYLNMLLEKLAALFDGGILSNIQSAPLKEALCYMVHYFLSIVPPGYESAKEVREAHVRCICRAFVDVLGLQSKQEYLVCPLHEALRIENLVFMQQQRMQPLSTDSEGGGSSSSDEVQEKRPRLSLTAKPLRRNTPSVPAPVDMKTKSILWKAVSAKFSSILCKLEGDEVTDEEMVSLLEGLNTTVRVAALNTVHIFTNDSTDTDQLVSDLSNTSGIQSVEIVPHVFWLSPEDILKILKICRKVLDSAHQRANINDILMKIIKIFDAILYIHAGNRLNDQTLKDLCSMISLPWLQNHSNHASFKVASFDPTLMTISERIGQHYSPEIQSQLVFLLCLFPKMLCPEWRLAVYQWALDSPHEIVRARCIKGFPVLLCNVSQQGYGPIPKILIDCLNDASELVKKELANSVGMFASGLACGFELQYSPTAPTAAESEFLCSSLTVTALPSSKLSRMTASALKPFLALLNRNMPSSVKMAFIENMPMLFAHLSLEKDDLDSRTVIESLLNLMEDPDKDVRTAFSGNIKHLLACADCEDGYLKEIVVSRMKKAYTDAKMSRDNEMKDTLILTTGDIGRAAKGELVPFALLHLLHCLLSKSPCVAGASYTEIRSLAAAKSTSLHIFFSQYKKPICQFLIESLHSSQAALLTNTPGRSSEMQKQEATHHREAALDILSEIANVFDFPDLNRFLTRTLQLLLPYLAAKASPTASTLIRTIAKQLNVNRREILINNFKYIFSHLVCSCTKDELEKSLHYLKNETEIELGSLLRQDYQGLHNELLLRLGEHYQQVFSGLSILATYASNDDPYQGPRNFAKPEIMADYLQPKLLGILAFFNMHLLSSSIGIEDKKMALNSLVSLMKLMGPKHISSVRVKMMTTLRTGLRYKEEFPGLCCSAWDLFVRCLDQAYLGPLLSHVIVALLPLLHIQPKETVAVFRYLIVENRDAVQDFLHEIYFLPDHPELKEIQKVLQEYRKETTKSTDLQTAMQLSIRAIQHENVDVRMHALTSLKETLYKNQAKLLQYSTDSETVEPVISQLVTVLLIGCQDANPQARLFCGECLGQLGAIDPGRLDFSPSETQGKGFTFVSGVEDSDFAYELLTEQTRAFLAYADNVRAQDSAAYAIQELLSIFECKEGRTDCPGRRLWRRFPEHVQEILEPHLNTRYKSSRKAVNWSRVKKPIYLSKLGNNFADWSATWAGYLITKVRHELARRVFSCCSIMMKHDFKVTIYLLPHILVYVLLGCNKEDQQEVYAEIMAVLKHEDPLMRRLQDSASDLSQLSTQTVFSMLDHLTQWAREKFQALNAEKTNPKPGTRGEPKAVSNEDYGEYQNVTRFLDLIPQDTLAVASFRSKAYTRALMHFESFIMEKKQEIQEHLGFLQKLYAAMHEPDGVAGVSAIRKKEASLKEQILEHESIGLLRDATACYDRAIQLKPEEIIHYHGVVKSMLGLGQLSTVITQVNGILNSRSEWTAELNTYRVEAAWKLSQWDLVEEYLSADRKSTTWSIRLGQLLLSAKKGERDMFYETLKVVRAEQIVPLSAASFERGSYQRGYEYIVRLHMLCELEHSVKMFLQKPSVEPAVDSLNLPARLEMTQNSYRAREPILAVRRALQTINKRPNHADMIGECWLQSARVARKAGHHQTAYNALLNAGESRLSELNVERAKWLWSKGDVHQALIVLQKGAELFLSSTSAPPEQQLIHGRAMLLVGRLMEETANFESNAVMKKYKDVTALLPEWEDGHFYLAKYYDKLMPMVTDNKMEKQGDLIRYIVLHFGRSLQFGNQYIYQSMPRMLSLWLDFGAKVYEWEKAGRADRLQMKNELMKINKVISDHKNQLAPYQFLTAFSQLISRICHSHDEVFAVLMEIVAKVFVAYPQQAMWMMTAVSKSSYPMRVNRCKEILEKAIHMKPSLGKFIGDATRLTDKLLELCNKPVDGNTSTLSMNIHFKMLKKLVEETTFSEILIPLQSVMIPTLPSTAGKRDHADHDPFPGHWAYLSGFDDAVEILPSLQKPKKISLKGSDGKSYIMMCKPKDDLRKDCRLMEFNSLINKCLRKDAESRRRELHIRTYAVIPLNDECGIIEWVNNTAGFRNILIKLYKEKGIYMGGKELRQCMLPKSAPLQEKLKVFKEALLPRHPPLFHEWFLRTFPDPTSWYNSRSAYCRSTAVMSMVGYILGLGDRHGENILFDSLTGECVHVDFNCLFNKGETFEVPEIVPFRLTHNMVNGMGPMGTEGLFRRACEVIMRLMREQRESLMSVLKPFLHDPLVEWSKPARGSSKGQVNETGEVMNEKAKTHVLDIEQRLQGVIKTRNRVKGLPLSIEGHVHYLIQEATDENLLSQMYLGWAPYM

Consider “human TopBP1 (residues 978-1192): GST fusion fragment of human TopBP1 (residues 978-1192) from between BRCT domains VI and VII”, for which, in the series on Xatr-Xatrip [1], the “activation of Xatr kinase activity toward PHAS-I” value was “activated Xatr-Xatrip very effectively”.

Turning to “residues 978-1192: His6-Human TopBP1 fragment containing residues 978-1192”, the “ATR activation compared with the 972-1279 fragment” value in the series on Xatr-Xatrip [1] is reported as “almost as effective as the 972-1279 fragment”.

B1: wild-type 978-1286 fragment of human TopBP1: EGFP containing the SV40 nuclear localization sequence and residues 978-1286 of human TopBP1, expressed from transfected plasmid (protein)
chain: KKKRKVAQECKHLPESLYPHTYNPKMSLDISAVQDGRLCNSRLLSAVSSTKDDEPDPLILEENDVDNMATNNKESAPSNGSGKNDSKGVLTQTLEMRENFQKQLQEIMSATSIVKPQGQRTSLSRSGCNSASSTPDSTRSARSGRSRVLEALRQSRQTVPDVNTEPSQNEQIIWDDPTAREERARLASNLQWPSCPTQYSELQVDIQNLEDSPFQKPLHDSEIAKQAVCDPGNIRVTEAPKHPISEELETPIKDSHLIPTPQAPSIAFPLANPPVAPHPREKIITIEETHEELKKQYIFQLSSLNPQERIDYCHL
modifications: left off: large carriers
As for B1, the “phosphorylation of Mcm2 on S108” value in the series with human Mcm2 on S108 (immunoblotting) was “significantly elevated phosphorylation”. Besides, the “phosphorylation of S108” value with human Mcm2 on S108 (indirect immunofluorescence) was “increase in the phosphorylation of S108”.

B2: XtopBP1Δ993-1196: full-length version of XtopBP1 in which most of the ATR-activating domain had been deleted (protein)
chain: MASSENEPFCVKFIKSPENSEYFFKAYEAIKQIQSDESLQLTEEREALLLKEKDKSLYICDPFSGAAFSHLKKLGCRIVGPQVVIFCMENQRRVPRAEYPVYNMAMADVTISCTSLDKETREDVHHYVQIMGGCVYRDLNVSVTHLIAGEVGSKKYLVAASLEKPILLPSWVKELWEKSNQRIIRYSDVNMTEYLCPIFRGCTICVTGLSSLDRKEVQRLTALHGGEYTGQLKMNESTHLIVQEAKGQKYECARKWNVHCISVQWFFDSIEKGFCQDETMYKIEPASTIKSVPDTSTPTGGNSKPNSRALYDVSQISNISTSCVNESAFNSAMASRLDPPADTLENLDISSLQAPDDLLDGCRIYLCGFGGRKLDKLRKLINNGGGVRFNQLTGDVTHIIVGETDEELKQFLNKTQHRPYVLTVKWLLDSFAKGHLQPEEIYFHSSYQQTEMPSPFEPAINLTANKMSSTRGPLNHTRNHQADEDLLSQYTENNSTLIEDEHPKTSNTNSISQMSMHEDMTTCTSQSGLADTSTIIEGGLFSRKQFMVLGFLEEDEACIIDIIKKSAGKVLSSQKRAIADYAVVPLLGCEVESTVGEVVTNAWLGMCIEQEKLLDPHSNALFTPVPFLEGSTPLRECVLSVSQFMGAERDSLVYLAGLLGAKVQEFFVRKANPKKGMFASTHLVLKDAEGSKYEAAKKWNLPAVTMNWLLQCARTGRKADEDSYLVDNVPEEDKDESFISQTYKPQAIRLSMHAPCHLENHPEALTKAAVTPLDMNRFKSKAFQSVISQHNKNPQTSGGESKVLQREPSLHLDTPSKFLSKDKLFKPSFDVKDALAALETPGGPNQKNRTQSTPLSEVIGRNLQLAIANSTRQTAAVTASPQLKAAEKKEFDNSKLLINVVICVSKKLIKKQGELNGIAASLGAEYRWCFDESVTHFIYHGRQNDMSREYKSVKERSGIYIVSEHWLFACSEQQKRVPEALYPHTYNPKMSLEFEPKSAMRTPVIENNLQSPTKPDHLTPTPQAPSIAFPLANPPVAPQPREKPVQPFSKEETLKERRFQLSSLDPQERIDYSQLIEELGGVVIEKQCFDPSCTHIVVGHPLRNEKYLASMAAGKWVLHRSYLEACRAAKRFIQEEDYEWGSISILSAVTNINPQQRMLAEAAMRWRKKLQGIKQNMGIAEGAFSGWKVILNVDQTKEPGFKRLLQSGGAKVFAGHSSPLFKEASHLFADFSKLKPDEPRVNVAEAAAQGVNCLKPEYIADYLMKELPPPMNNYCLPDAIPYVRVTGTGLSRKRKTSGDVSDVKRSRHY
modifications: left off: small tags and cut ends
In the case of B2, the “activation of Xatr kinase activity toward PHAS-I” value in the series with Xatr-Xatrip [1] is on record as “no Xatr-activating capacity”.

B3: 1008-1286 fragment: His6-Human TopBP1 fragment, residues 1008-1286 (protein)
chain: RLCNSRLLSAVSSTKDDEPDPLILEENDVDNMATNNKESAPSNGSGKNDSKGVLTQTLEMRENFQKQLQEIMSATSIVKPQGQRTSLSRSGCNSASSTPDSTRSARSGRSRVLEALRQSRQTVPDVNTEPSQNEQIIWDDPTAREERARLASNLQWPSCPTQYSELQVDIQNLEDSPFQKPLHDSEIAKQAVCDPGNIRVTEAPKHPISEELETPIKDSHLIPTPQAPSIAFPLANPPVAPHPREKIITIEETHEELKKQYIFQLSSLNPQERIDYCHL
modifications: left off: small tags and cut ends
Regarding B3, the “ATR activation compared with the 972-1279 fragment” value with Xatr-Xatrip [1] was “slight, but not very significant reduction”.

B4: 1050-1286 fragment: His6-Human TopBP1 fragment, residues 1050-1286 (protein)
chain: NGSGKNDSKGVLTQTLEMRENFQKQLQEIMSATSIVKPQGQRTSLSRSGCNSASSTPDSTRSARSGRSRVLEALRQSRQTVPDVNTEPSQNEQIIWDDPTAREERARLASNLQWPSCPTQYSELQVDIQNLEDSPFQKPLHDSEIAKQAVCDPGNIRVTEAPKHPISEELETPIKDSHLIPTPQAPSIAFPLANPPVAPHPREKIITIEETHEELKKQYIFQLSSLNPQERIDYCHL
modifications: left off: small tags and cut ends
For B4, in the series on Xatr-Xatrip [1], the “ATR activation compared with the 972-1279 fragment” value is on record as “significant reduction”.

B5: residues 1050-1192: His6-Human TopBP1 fragment containing residues 1050-1192 (protein, UniProt Q92547 1050-1192, looked up, fragment)
chain: NGSGKNDSKGVLTQTLEMRENFQKQLQEIMSATSIVKPQGQRTSLSRSGCNSASSTPDSTRSARSGRSRVLEALRQSRQTVPDVNTEPSQNEQIIWDDPTAREERARLASNLQWPSCPTQYSELQVDIQNLEDSPFQKPLHDS
modifications: His6 tag
B5: the “ATR activation compared with the 972-1279 fragment” value with Xatr-Xatrip [1] is “almost as effective as the 972-1279 fragment”.

B6: GST-XtopBP1 (1197-1513): GST fusion of XtopBP1 residues 1197-1513, containing two adjoining BRCT repeats (protein)
chain: EFEPKSAMRTPVIENNLQSPTKPDHLTPTPQAPSIAFPLANPPVAPQPREKPVQPFSKEETLKERRFQLSSLDPQERIDYSQLIEELGGVVIEKQCFDPSCTHIVVGHPLRNEKYLASMAAGKWVLHRSYLEACRAAKRFIQEEDYEWGSISILSAVTNINPQQRMLAEAAMRWRKKLQGIKQNMGIAEGAFSGWKVILNVDQTKEPGFKRLLQSGGAKVFAGHSSPLFKEASHLFADFSKLKPDEPRVNVAEAAAQGVNCLKPEYIADYLMKELPPPMNNYCLPDAIPYVRVTGTGLSRKRKTSGDVSDVKRSRHY
modifications: left off: a dimerising Fc or GST
notes: GST fusion of XtopBP1 residues 1197-1513, containing two adjoining BRCT repeats
As to B6, the “phosphorylation of Xchk1 in egg extracts” value with Xchk1 was “did not induce any phosphorylation”. For the same molecule, the “binding of Xatr and Xatrip to glutathione beads” value in the series on Xatr-Xatrip [2] is “no binding”. Moreover, the “activation of Xatr kinase activity toward PHAS-I” value in the series with Xatr-Xatrip [1] is recorded as “incapable of activating Xatr”.
